Literature values as cited in PMC6359176.

Molecular target: α-synuclein preformed fibrils (Homo sapiens) (UniProt P37840)

LAG3 (from UniProt Q61790)
Kd: 77 nM
